From patent US7037674B1, “Cytochrome P450 reductases from poppy plants” (priority 1997, dated 2006)
Like-named read-outs stand apart in the source and are kept apart here.

Test system: cytochrome P-450 reductase from P. somniferum cell suspension cultures
Settings: for Km: read-out: Km value, purified P. somniferum reductase (mixture of two isozymes)
Description: Purification and sequence analysis. Cells were harvested from seven-day-old suspension cultures of P. somniferum by vacuum filtration, immediately shock frozen and stored at −20° C. All of the following operations were carried out at 4° C. 500 g frozen tissue were then homogenised with a mortar and pestle in 1 liter 0.1 M tricine/NaOH, pH 7.5 containing 15 mM thioglycolic acid. Cell debris was removed by centrifugation at 10,000× g, 30 min. The supernatant was filtered through four layers of cheesecloth and the microsomes were then isolated by MgCl2 precipitation according to (19). […] Microsomal protein was solubilized as follows. 2 mg CHAPS (3[(3-cholamidopropyl)dimethyl-ammonio]-1-propane-sulfonate, Roth) per mg microsomal protein was prepared in 1 mL of 0.1 M tricine/NaOH, pH 7.5 containing 15 mM thioglycolic acid. This solution was added dropwise to the microsomal suspension. 2% (v/v) Emulgen 911 (Kao Corporation) was then added and the solution slowly stirred for 1 h. Membrane fragments were removed by centrifugation at 105,000× g for 60 min. The total activity in the solubilized microsomes was assigned the value 100%. The solubilized cytochrome P-450 reductase was then purified to electrophoretic homogeneity according to (20).
Yeast microsomes were isolated according to either (22) or (23) and the presence cytochrome P-450 reductase was measured as the ability to reduce cytochrome c (24).

purified reductase: cytochrome P-450 reductase purified from P. somniferum cell suspension cultures
optimal molarity range of the Tricine buffer: 250 to 500 mM | activity declined to (at 100 mM Tricine): 21% | activity declined to (at 1 M Tricine): 77% | pH optimum (in 0.5 M Tricine buffer): 8.0

NC(=O)C1=CN([C@@H]2O[C@H](COP(=O)(O)OP(=O)(O)OC[C@H]3O[C@@H](n4cnc5c(N)ncnc54)[C@H](OP(=O)(O)O)[C@@H]3O)[C@@H](O)[C@H]2O)C=CC1 [NADPH, reference compound]
Km: 4.2 µM

cytochrome c [reference compound]
Km: 8.3 µM
